Blank lines part the entries; values can stand above or below the binder they belong to. Starred links: 1 amine or outer side, 2 acyl side, 3 side chain; linkers in the order of their positions; H or OH if unused. Positions of bridges follow the written chain, without caps; N, C: chain ends. Non-standard residues stand in square brackets, D forms with d. Primed or numbered codes have the meaning given here. PyrS2″ = (S)-3-amino-1-((pent-4-en-1-yloxy)carbonyl)pyrrolidine-3-carboxylic acid (stapling residue), C=CCCCOC(=O)N1CC[C@@](N[*:1])(C(=O)[*:2])C1; B5(4) = 2,2-bis(4-pentenyl)glycine = 2-amino-2-(pent-4-en-1-yl)hept-6-enoic acid (stitching residue), C=CCCCC(CCCC=C)(N[*:1])C(=O)[*:2]; B5(5) = 2,2-bis(4-pentenyl)glycine, 2-amino-2-(pent-4-en-1-yl)hept-6-enoic acid (stitching residue), C=CCCCC(CCCC=C)(N[*:1])C(=O)[*:2]; PyrS2 = (S)-3-amino-1-((pent-4-en-1-yloxy)carbonyl)pyrrolidine-3-carboxylic acid, C=CCCCOC(=O)N1CC[C@@](N[*:1])(C(=O)[*:2])C1; B5 = 2-amino-2-(pent-4-en-1-yl)hept-6-enoic acid, C=CCCCC(CCCC=C)(N[*:1])C(=O)[*:2]; Phe(3-CF3) = N[C@@H](Cc1cccc(C(F)(F)F)c1)C(=O)O; Phe(3-COOH) = N[C@@H](Cc1cccc(C(=O)O)c1)C(=O)O; Phe(2-CF3) = N[C@@H](Cc1ccccc1C(F)(F)F)C(=O)O; Phe(2-Cl) = N[C@@H](Cc1ccccc1Cl)C(=O)O; Bta = N[C@@H](Cc1csc2ccccc12)C(=O)O; αAllylPro = C=CC[C@@]1(C(=O)O)CCCN1; tBuAla = CC(C)(C)C[C@H](N)C(=O)O; S8 = C=CCCCCCC[C@](C)(N)C(=O)O
Legend:
[1] = biological target: T1, beta-catenin in DLD1 TCF/LEF reporter cells (UniProt P35222 1-781); experiment: cell-based or functional assay
T1 sequence (looked up): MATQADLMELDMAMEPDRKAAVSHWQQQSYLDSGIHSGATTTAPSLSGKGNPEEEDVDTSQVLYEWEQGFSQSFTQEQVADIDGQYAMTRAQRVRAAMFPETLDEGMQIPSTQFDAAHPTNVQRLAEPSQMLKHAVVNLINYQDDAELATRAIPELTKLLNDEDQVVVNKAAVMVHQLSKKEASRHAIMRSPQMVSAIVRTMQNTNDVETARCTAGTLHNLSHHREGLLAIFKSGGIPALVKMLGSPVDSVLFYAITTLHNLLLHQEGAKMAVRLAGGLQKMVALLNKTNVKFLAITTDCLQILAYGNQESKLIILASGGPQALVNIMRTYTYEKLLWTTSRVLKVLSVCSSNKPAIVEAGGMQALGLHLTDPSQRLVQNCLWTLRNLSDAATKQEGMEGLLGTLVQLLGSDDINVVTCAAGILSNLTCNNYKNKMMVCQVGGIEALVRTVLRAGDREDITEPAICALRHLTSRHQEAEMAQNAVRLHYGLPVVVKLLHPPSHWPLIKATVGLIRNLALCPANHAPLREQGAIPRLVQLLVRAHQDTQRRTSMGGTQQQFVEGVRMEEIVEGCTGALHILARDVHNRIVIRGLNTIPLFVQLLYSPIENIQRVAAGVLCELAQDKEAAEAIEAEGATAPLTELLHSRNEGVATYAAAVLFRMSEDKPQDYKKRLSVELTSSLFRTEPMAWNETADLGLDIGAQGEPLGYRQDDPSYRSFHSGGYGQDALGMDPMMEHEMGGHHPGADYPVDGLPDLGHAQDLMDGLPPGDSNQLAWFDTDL

B-cat-Halo = biological target: T2, B-cat-Halo (UniProt P35222 1-781); experiment: cell-based or functional assay
T2 sequence (looked up): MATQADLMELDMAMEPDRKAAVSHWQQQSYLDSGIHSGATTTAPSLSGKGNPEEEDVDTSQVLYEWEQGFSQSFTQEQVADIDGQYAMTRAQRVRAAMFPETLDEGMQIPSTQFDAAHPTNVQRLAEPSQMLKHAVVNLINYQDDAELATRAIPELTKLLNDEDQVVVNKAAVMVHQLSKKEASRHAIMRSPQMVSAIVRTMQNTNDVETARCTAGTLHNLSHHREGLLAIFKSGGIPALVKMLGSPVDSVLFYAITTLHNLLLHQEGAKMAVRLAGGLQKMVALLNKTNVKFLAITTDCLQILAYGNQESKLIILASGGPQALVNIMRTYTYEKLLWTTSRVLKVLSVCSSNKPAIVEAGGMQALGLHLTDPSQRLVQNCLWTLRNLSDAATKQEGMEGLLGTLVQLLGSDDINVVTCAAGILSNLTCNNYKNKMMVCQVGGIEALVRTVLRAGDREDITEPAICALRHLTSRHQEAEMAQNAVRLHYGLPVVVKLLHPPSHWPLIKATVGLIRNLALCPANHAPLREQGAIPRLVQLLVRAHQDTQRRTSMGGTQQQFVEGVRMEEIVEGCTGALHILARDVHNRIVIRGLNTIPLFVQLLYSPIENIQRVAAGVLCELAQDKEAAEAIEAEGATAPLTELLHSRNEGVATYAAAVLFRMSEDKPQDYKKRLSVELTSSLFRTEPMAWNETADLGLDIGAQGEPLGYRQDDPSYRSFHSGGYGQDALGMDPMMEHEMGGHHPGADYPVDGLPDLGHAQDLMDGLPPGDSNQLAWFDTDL

[2] = biological target: T3, full-length beta-Catenin (Uniprot ID P35222) (Homo sapiens (Human), UniProt P35222 2-781); experiment: fluorescence polarization competition: full-length beta-catenin + 5FAM-TCF4(10-53) probe, peptide titrated
T3 construct: The AlphaScreen assay used a Histidine (Nickel Chelate) detection kit, so a His tag is likely, but no tag is described; also called B-Catenin; bCat
T3 sequence: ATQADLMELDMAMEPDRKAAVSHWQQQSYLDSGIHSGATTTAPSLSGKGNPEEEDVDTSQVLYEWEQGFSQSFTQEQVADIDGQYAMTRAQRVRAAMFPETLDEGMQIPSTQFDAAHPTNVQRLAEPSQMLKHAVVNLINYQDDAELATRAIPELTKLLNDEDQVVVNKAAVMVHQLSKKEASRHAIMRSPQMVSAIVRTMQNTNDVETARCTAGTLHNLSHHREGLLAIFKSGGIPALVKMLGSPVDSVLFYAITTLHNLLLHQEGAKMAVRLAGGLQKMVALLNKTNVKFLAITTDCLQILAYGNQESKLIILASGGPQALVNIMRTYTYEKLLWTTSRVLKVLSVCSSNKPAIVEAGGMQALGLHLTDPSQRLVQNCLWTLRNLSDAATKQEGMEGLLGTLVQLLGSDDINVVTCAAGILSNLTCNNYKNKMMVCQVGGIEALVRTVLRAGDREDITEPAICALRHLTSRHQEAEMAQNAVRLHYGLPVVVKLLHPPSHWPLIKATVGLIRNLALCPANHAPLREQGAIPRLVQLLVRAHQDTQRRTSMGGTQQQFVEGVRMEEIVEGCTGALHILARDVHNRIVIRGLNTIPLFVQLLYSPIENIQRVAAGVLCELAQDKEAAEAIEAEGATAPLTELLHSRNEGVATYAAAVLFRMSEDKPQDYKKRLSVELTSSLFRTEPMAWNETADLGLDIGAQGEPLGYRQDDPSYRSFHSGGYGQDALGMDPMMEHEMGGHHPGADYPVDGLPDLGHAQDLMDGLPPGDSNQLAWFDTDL
Procedure, shortened: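 Incubate 60 minutes at 20° C. away from light, then read polarization in duplicate. Fit to 1:1 binding with hill slope.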

[3] = biological target: T3, full-length beta-Catenin (Uniprot ID …); experiment: AlphaScreen competition: full-length beta-catenin + biotin-TCF4(10-53) probe, peptide titrated
Procedure, shortened: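 Titrated peptide was preincubated 15 minutes at 20° C, then donor and acceptor beads were added for 60 minutes at 20° C protected from light. Reads were done in duplicate, and data were fitted to a 1:1 binding model with Hill slope; concentrations are final.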

[4] = biological target: T4, beta-catenin in DLD1 TCF/LEF luciferase reporter cells (UniProt P35222 1-781); experiment: cell-based or functional assay
T4 sequence (looked up): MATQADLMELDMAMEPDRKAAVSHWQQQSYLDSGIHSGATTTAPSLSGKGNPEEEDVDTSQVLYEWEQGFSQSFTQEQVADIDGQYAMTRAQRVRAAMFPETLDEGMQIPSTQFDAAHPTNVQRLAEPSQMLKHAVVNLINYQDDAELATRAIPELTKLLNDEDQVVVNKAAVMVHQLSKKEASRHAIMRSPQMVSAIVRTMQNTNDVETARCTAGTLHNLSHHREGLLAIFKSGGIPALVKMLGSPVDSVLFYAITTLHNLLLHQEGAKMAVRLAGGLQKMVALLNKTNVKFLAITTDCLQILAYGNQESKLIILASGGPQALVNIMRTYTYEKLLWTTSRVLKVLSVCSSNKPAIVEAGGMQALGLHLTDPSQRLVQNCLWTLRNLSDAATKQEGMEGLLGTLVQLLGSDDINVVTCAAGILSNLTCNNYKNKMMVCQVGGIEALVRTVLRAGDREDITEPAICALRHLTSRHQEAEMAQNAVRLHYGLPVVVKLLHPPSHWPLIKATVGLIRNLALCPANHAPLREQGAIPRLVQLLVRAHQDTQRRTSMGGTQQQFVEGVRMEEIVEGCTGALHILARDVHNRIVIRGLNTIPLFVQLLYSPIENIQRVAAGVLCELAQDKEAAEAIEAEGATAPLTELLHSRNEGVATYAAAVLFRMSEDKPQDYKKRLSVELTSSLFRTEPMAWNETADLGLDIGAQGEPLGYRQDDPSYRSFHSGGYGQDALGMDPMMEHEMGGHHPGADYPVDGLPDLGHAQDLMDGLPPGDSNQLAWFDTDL

DLD1 reporter assay Abs IC50 [1]: 13.9 µM
NanoBRET Abs IC50 (B-cat-Halo): 17.7 µM
B1: I-1244 (peptide)
peptide: Ac-[αAllylPro]D[tBuAla][B5(4)]DDAAFT[PyrS2″][Phe(2-Cl)][Bta]S-NHEt
modifications: staple 1-4, 4-11

EC50 [2]: 5 µM
EC50 [3]: 1.2 µM
B2: I-251 (peptide)
peptide: Ac-[αAllylPro]DA[B5]DDAAFV[S8][Phe(3-CF3)]WQ-NH2
modifications: staple 1-4, 4-11
notes: Stapled peptide composition; also called Ac-PL3-Asp-Ala-B5-Asp-Asp-Ala-Ala-Phe-Val-S8-3F3MeF-Trp-Gln-NH2

DLD1 4% Abs IC50 [4]: 0.8 µM
B3: I-2401 (peptide)
peptide: Ac-[αAllylPro]D[tBuAla][B5(5)]D[Phe(3-COOH)]AAFL[PyrS2][Phe(2-CF3)][Bta]QVA-NH2
modifications: staple 1-4, 4-11

DLD1 4% Abs IC50 [4]: 2.2 µM
B4: I-2399 (peptide)
peptide: Ac-[αAllylPro]D[tBuAla][B5(5)]D[Phe(3-COOH)]AAFL[PyrS2][Phe(2-CF3)][Bta]QAA-NH2
modifications: staple 1-4, 4-11

From patent US20240116985A1 (published 2024)
